Test results as given in patent US20170196940A1 (RESEARCH FOUNDATION FOR THE STATE UNIVERSITY OF NEW YORK, published 2017).
Positions of bridges follow the written chain, without caps; N, C: chain ends. Non-standard residues stand in square brackets, D forms with d. No end group written: not given here. Bph = 4,4'-bis(methyl)biphenyl crosslink between two cysteines (CL-1)

Assays:
Experiment in all cases: cell-based or functional assay
[1] = target: T1, human glucagon-like peptide 1 receptor (GLP-1R) (human, UniProt P43220 24-463)
[2] = target: T2, human glucagon receptor (GCGR) (human, UniProt P47871 26-477)
[3] = target: T1, human glucagon-like peptide 1 receptor …; remark: listed apart in the source
[4] = target: T2, human glucagon receptor (GCGR); remark: listed apart in the source

T2 sequence (P47871 26-477): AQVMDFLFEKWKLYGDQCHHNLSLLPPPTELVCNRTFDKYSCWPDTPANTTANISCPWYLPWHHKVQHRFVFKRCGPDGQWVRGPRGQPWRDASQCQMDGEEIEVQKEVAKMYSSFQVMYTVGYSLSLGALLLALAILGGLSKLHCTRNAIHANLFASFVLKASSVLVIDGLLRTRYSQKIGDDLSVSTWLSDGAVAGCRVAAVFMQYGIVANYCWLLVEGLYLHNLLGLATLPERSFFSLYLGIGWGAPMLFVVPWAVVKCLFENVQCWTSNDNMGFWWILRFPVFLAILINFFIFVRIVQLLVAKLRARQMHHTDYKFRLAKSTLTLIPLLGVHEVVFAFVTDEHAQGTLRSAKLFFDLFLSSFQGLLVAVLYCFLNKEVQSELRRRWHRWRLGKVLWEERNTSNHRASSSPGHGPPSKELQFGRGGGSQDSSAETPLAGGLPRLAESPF

| Binder | Agonist activity (nM), EC50, CRE-luciferase reporter in HEK293 cells overexpressing the receptor [2] | Agonist activity (nM), EC50, CRE-luciferase reporter in HEK293 cells overexpressing the receptor [3] | further results |
| --- | --- | --- | --- |
| H[dS]QGTFTSDYSKYLDECAAKEFICWLMNTKRNRNNIA-NH2 (cysteine pairing not given here) [peptide 7] | 30 nM | – | fold higher potency against peptide 5, CRE-luciferase reporter assay [1]: > 80 fold |
| H[dS]QGTFTSDYSKYLDECAVRLFICWLMNTKRNRNNIA-NH2 (cysteine pairing not given here) [peptide 8] | 1000 nM | – | fold higher potency against peptide 5, CRE-luciferase reporter assay [1]: > 80 fold |
| H[dS]QGTFTSDYSKYLDSRRAQ[dC]FVQWLMCTKRNRNNIA-NH2 (cysteine pairing not given here) [peptide 2] | > 1000 nM | > 2000 nM | – |
| H[dS]QGTFTSDYSKYLDECAAKEFICWLMNTKRNRNNIA-NH2 (linker 17-24 via Bph) [peptide 9] | 0.7 nM | 0.2 nM | fold increase in activity against linear peptide 7, CRE-luciferase reporter assay [1]: 80 fold; fold increase in activity against linear peptide 7, CRE-luciferase reporter assay [4]: 40 fold |
| H[dS]QGTFTSDYSKYLDS[dC]RAQDFVCWLMNTKRNRNNIA-NH2 (linker 17-24 via Bph) [peptide 3] | 3 nM | ~500 nM | fold increase in activity against linear peptide 1, CRE-luciferase reporter assay [1]: 2 fold; fold increase in activity against linear peptide 1, CRE-luciferase reporter assay [4]: 16 fold |
| H[dS]QGTFTSDYSKYLDSCRAQDFVCWLMNTKRNRNNIA-NH2 (cysteine pairing not given here) [peptide 4] | 30 nM | ~500 nM | fold increase in activity against peptide 1, CRE-luciferase reporter assay [1]: ~2 fold; fold increase in activity against peptide 1, CRE-luciferase reporter assay [4]: ~2 fold |
| H[dS]QGTFTSDYSKYLDECRAQDFVCWLMNTKRNRNNIA-NH2 (cysteine pairing not given here) [peptide 5] | – | ~400 nM | – |
